# Results: patent publication US20250042957A1 (Molecular Partners, published 2025)
# Substitutions are numbered along the chain they refer to. Like-named read-outs stand apart in the source and are kept apart here.
# T1: scCD3εγ
# T1 chain 1: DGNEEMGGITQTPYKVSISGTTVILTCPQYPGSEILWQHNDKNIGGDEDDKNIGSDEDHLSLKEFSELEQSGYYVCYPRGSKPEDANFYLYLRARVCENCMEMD
# T1 chain 2: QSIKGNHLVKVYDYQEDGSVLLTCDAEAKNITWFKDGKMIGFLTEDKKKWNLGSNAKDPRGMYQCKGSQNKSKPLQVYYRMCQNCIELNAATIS
# T2: Aminoglycoside phosphotransferase (APH) (Enterococcus faecalis (Streptococcus …, UniProt P0A3Y5 2-264))
# T2 chain: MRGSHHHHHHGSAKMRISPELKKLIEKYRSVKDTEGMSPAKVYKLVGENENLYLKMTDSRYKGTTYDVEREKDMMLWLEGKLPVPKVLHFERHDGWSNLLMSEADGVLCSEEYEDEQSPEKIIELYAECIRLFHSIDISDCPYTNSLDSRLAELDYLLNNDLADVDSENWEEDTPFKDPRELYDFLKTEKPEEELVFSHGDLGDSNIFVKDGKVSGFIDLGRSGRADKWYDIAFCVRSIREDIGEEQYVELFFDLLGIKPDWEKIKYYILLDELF
# B1: Switchdrug DARPin 15-3 (designed binder)
# chain: MRGSHHHHHHGSDLDKKLLEAARAGQDDEVRILLKAGADVNAKDSTGWTPLHLAAPWGHPEIVEVLLKAGADVNAKDFQGWTPLHLAAAAGHLEIVEVLLKAGADVNAKDWLGWTPLHLAASHGHLEIVEVLLKAGADVNAQDKSGKTPADLAARAGHQDIAEVLQKAAGSPTPTPTTPTPTPTTPTPTPTGSDLGKKLLEAARAGQDDEVRELLKAGADVNAKDKDGYTPLHLAAREGHLEIVEVLLKAGADVNAKDKDGYTPLHLAAREGHLEIVEVLLKAGADVNAQDKSGKTPADLAADAGHEDIAEVLQKAAGSPTPTPTTPTPTPTTPTPTPTGSDLGQKLLEAAWAGQDDEVRELLKAGADVNAKNSRGWTPLHTAAQTGHLEIFEVLLKAGADVNAKNDKRVTPLHLAAALGHLEIVEVLLKAGADVNARDSWGTTPADLAAKYGHQDIAEVLQKAA
# notes: also called 2-in-1 DARPin15 in Format 3
# B2: Switchdrug DARPin 17-3 (designed binder)
# chain: B1 chain with D15G, E20Q, D27L, I32E
# notes: also called 2-in-1 DARPin17 in Format 3
# B3: Switchdrug DARPin 17-A (designed binder)
# chain: MRGSHHHHHHGSDLGKKLLQAARAGQLDEVRELLKAGADVNAKDQYGRTPLHLAAIKGHLEIVEVLLKAGADVNAKDSLGYTPLHLAAVEGPLEIVEVLLKAGADVNAKDAYGQTPLHIAAAWGHLEIVEVLLKAVADVNAQDKSGKTPADLAARAGHQDIAEVLQKAAGSPTPTPTTPTPTPTTPTPTPTGSDLGQKLLEAAWAGQDDEVRELLKAGADVNAKNSRGWTPLHTAAQTGHLEIFEVLLKAGADVNAKNDKRVTPLHLAAALGHLEIVEVLLKAGADVNARDSWGTTPADLAAKYGHQDIAEVLQKAAGSPTPTPTTPTPTPTTPTPTPTGSDLGKKLLQAARAGQLDEVRELLKAGADVNAKDSTGWTPLHLAAPWGHPEIVEVLLKAGADVNAKDFQGWTPLHLAAAAGHLEIVEVLLKAGADVNAKDWLGWTPLHLAASHGHLEIVEVLLKAGADVNAQDKSGKTPADLAARAGHQDIAEVLQKAA
# notes: also called 2-in-1 DARPin17 in Format A
# B4: Parent DARPin no 2 (SEQ ID NO: 87) (designed binder)
# chain: DLGKKLLEAARAGQDDEVRILMANGADVNANDWFGITPLHLVVNNGHLEIIEVLLKYAADVNASDKSGWTPLHLAAYRGHLEIVEVLLKYGADVNAMDYQGYTPLHLAAEDGHLEIVEVLLKYGADVNAQDKFGKTAFDISIDNGNEDLAEILQKLN
# B5: 2-in-1 DARPin 21 (SEQ ID NO: 90) (designed binder)
# chain: DLGKKLLEAARAGQDDEVRILMANGADVNANDWFGITPLHLVVNNGHLEIIEVLLKYAADVNASDKSGWTPLHLAAYRGHLEIVEVLLKYGADVNAMDYQGYTPLHLAAEDGHLEIVEVLLKYGADVNAKDKFGKTPLHIAARAGHLEIVEVLLKAGADVNAADNTGTTPLHLAAYSGHLEIVEVLLKHGADVDASDVFGYTPLHLAAYWGHLEIVEVLLKNGADVNAMDSDGMTPLHLAAKWGYLEIVEVLLKHGADVNAQDKFGKTAFDISIDNGNEDLAEILQKAA
# B6: 2-in-1 DARPin 22 (SEQ ID NO: 91) (designed binder)
# chain: B5 chain with K135R, A144N
# How the values were obtained:
# scCD3εγ [1] = target: T1, scCD3εγ; test: ELISA: plate-bound biotinylated scCD3εγ, His-tagged construct titrated in presence of 100 nM soluble VEGF
# Description: (§1) The difference in binding of Switchdrug DARPins to scCD3εγ in presence and absence of VEGF was assessed. […] Said Switchdrug DARPins were mixed with a constant concentration of VEGF (100 nM) and tested for binding to scCD3εγ. […] The difference in EC50 of a construct in presence and absence of VEGF can be referred to as the “activation window”.
# (§2) Switchdrug DARPins that were mixed with VEGF were titrated and pre-incubated for 1 day with VEGF in order to establish the thermodynamic equilibrium. These samples were loaded on the ELISA plate, incubated and washed, before the bound Switchdrug DARPins were detected as described above.
# scCD3εγ [2] = target: T1, scCD3εγ; test: ELISA: plate-bound biotinylated scCD3εγ, His-tagged construct titrated without and with 100 nM soluble VEGF
# Description: as §1, §2
# VEGF165 = target: T3, VEGF165 (UniProt P15692-4 27-191, biotinylated in the ELISA of Example 4 (site not stated)); test: ELISA: plate-bound biotinylated VEGF165, His-tagged construct titrated, no soluble VEGF, anti-His-HRP detection
# T3 construct: also called biotinylated VEGF165; soluble VEGF
# scCD3εγ [3] = target: T1, scCD3εγ; test: ELISA: plate-bound biotinylated scCD3εγ, His-tagged construct titrated without and with 100 nM soluble VEGF
# Description: as §1, §2
# [4] = target: T2, Aminoglycoside phosphotransferase (APH)
# [5] = target: Maltose binding protein (MBP) (E. coli); test: ELISA on MBP, DARPin titrated
# [6] = target: T2, Aminoglycoside phosphotransferase (APH); test: ELISA on APH, DARPin titrated
# T3 sequence (P15692 other isoform, or with tags, fused parts or gaps limits assumed): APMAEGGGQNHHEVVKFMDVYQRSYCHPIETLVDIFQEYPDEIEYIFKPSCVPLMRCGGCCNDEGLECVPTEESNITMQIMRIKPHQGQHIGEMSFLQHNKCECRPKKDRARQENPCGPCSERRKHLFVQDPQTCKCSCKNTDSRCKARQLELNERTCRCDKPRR
Binder,EC50 (read off the curve) (scCD3εγ [1]) [nM],shift in EC50 upon addition of 100 nM VEGF (scCD3εγ [2]) [fold],Kd [4] [nM],EC50 (read off the curve) [6] [nM],other results
B1,~8,~54,–,–,–
B2,~3,~100,–,–,–
B3,–,–,–,–,EC50 (read off the curve) (VEGF165): ~40 nM; shift in EC50 upon addition of 100 nM VEGF (scCD3εγ [3]): ~90 fold
B4,–,–,147,–,–
B5,–,–,66.9,~20,EC50 (read off the curve) [5]: ~100 nM
B6,–,–,52.6,~10,–
